Data: patent US20100099142

Target: Met-hIL-21, Q9HBE4
Sequence (Q9HBE4 whole entry, looked up): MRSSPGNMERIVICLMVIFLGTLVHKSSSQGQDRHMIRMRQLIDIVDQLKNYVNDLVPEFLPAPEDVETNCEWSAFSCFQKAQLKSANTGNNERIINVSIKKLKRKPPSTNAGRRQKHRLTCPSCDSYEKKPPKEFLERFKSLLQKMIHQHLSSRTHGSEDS

Protein	Met-free hIL-21 generated (removal of initiator Met, enzyme activity)	cleavage of Met-hIL-21 in 44 h (enzyme activity)	removal of initiator Methionine, assayed by MALDI-TOF
hexa-His-Xa-Met-AP M206A, Q233A (protein) MAISIKTPEDIEKMRVAGRLAAEVLEMIEPYVKPGVSTGELDRICNDYIVNEQHAVSACLGYHGYPKSVCISINEVVCHGIPDDAKLLKDGDIVNIDVTVIKDGFHGDTSKMFIVGKPTIMGERLCRITQESLYLALRMVKPGINLREIGAAIQKFVEAEGFSVVREYCGHGIGRGFHEEPQVLHYDSRETNVVLKPGMTFTIEPAVNAGKKEIRTMKDGWTVKTKDRSLSAAYEHTIVVTDNGCEILTLRKDDTIPAIISHDE	˜65% Met-free hIL-21	In 44 h. more than 90% cleavage of Met-hIL-21 could be observed	removal of Methionine from Met-IL21 below detection limits of Met-IL21 could be performed
Met-AP (M206A) (protein) MAISIKTPEDIEKMRVAGRLAAEVLEMIEPYVKPGVSTGELDRICNDYIVNEQHAVSACLGYHGYPKSVCISINEVVCHGIPDDAKLLKDGDIVNIDVTVIKDGFHGDTSKMFIVGKPTIMGERLCRITQESLYLALRMVKPGINLREIGAAIQKFVEAEGFSVVREYCGHGIGRGFHEEPQVLHYDSRETNVVLKPGMTFTIEPAVNAGKKEIRTMKDGWTVKTKDRSLSAQYEHTIVVTDNGCEILTLRKDDTIPAIISHDE			removal of Methionine from Met-IL21 below detection limits of Met-IL21 could be performed
